The target in data set [1] is ESAT6 (early secretory antigenic target 6 kDa) (Mycobacterium tuberculosis H37Rv, UniProt P9WNK7 P9WNK7:1-95). The experiment in a line: fluorescence of Cy3-aptamer bound to ESAT6 on magnetic beads; 20 mM Tris, 50 mM NaCl, 5 mM KCl, 5 mM MgCl2, pH 8.0. The note with it: label: Cy3. The method, then: 400 pmole of ESAT6 was mixed with 10 μL of magnetic beads, and then incubated in 100 μL of a binding buffer (20 mM Tris, 50 mM NaCl, 5 mM KCl, 5 mM MgCl₂, pH 8.0) for 1 hour. To separate unbound ESAT6, washing was performed twice with a binding buffer. Subsequently, the resulting mixture was incubated together with various concentrations of a Cy3-labeled aptamer, and an unbound aptamer was removed by washing. The amount of Cy3-labeled ssDNA aptamer bound to the magnetic beads with ESAT6 immobilized thereon was measured by fluorescence measurement (1420 Victor Multilabel counter, PerkinElmer, USA) by separating only Cy3-labeled ssDNA bound to ESAT6. As a result, as shown in FIG. 3 and Table 2 below, the Kd value of the DNA aptamer having a EG11(44) base sequence was measured.
Sequence of ESAT6 (early secretory antigenic target 6 kDa) (P9WNK7 whole entry, one chain of several): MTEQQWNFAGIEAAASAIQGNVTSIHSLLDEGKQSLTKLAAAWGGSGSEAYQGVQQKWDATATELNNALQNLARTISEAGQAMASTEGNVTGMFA

The target of data set [2] is T1, TB7.7 (UniProt P9WJ11 P9WJ11:1-81).
T1 sequence: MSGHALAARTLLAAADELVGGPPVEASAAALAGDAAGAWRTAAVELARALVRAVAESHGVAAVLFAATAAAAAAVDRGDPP
Kind of data set: electrochemical impedance specificity test; 10 pM protein in PBS. From the text: (§1) At this time, each protein was mixed at a concentration of 10 pM with PBS and used for detection.

Data set [3] has as its target CFP-10 (UniProt P9WNK5 P9WNK5:1-100). The data set is described as above.
Text: as §1

By Kd is commonly meant the constant that tells how readily two partners part at equilibrium. A lower Kd goes with tighter binding.

Sequence of CFP-10 (P9WNK5 whole entry, one chain of several): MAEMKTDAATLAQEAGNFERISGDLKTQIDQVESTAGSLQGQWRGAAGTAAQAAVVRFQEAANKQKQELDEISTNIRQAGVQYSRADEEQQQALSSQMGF

B1: EG11(44) (ssDNA)
DNA: CGAGGTAGCTTACCCGCTTATGTTCACTGTGGGTTGCTGGCTCG
In turn, B1 yielded a Kd in data set [1] of 31.4 nM.

B2: EG11(44) unlabelled (ssDNA)
DNA: CGAGGTAGCTTACCCGCTTATGTTCACTGTGGGTTGCTGGCTCG
Regarding B2, the binding result in data set [2] and in data set [3] was “no binding” throughout.

The values are drawn from patent publication US20200340992, “DNA APTAMER […] BINDING TO ESAT6, AND USE […]” (MD APTUS INC., published 2020).
